Here are results for 57 substances from the supplement of paper PMC12042874.

± gives the uncertainty stated by the source.

This data set in a line: amyloid nucleation score (Sup35N fusion, yeast selection) (log enrichment); library NNK2; higher = more nucleation; inactive = no reads after selection. In outline:
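Yeast lacking psi expressed peptides of 20 random codons fused to Sup35N, received 100 μM copper sulfate for 24 hours, and were then grown for 7 days at 30°C on medium lacking adenine and uracil. Illumina sequencing of input and output plasmid inserts provided the reads. Nucleation scores are DiMSum log enrichments of output over input, centred on the mode of non-aggregating sequences. Any sequence with under 100 input reads was excluded.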
For the substance GDFSPYYCHCYIIMVCGMLG, the amyloid nucleation score entry is “inactive”. For the substance GIKHLKGTNDTSMYCHVSIV, the amyloid nucleation score came to 0.298 ± 0.4. As to VRDDCARWK, the amyloid nucleation score was determined as 0.327 ± 0.45.

Consider GSNIEGY, for which the amyloid nucleation score was -0.512 ± 0.46. The value for FMMHRVSTRFASKNAS was -0.072 ± 1.1. Consider CTVFCLQRSFGHYSLMMLIN, for which the amyloid nucleation score was 2.22 ± 0.12. As to NHLMSMFDCSDTQMSSSSIA, the amyloid nucleation score came to 0.308 ± 0.32. The value for PNPRPVSICNRLYPF was -0.246 ± 0.38. The figure for SYENTSV is 0.376 ± 0.66; for HSVFNSMRRENLVNNNTLNG it is “inactive”. The figure for RNYRLRMDGDCGLFFCCGD is 9.348 ± 0.051. In turn, DVMSSPGVSFITTVAFDVC gave an amyloid nucleation score of 0.382 ± 0.8. The figure for SGRLNVSLLGVDSFYTELCA is -0.787 ± 0.54; for HRSNFVVKLAASGSFTTGCR it is 0.376 ± 0.29; for HFENLTHYTIVSTFFSLGVP it is “inactive”. For NFIVW, the amyloid nucleation score is -0.417 ± 0.64. In turn, LTLIVNPLVNSPPGPQASLT yielded an amyloid nucleation score of 0.735 ± 0.23. The figure for AEYKCAFFMSLNAVALDKRY is 3.2 ± 0.12; for FTNFNDYLFWNYMNWTGYML it is “inactive”; for RLRSILLSWCCRFGGSQLRA it is 0.581 ± 0.39. The value for DREFLGDCWVLAELSKTRLI was 3.24 ± 0.093; that for TRYTRGSALCTLDGKIYMMK was 1.29 ± 0.4. The value for GNCCDDCP was 1.53 ± 0.24; that for NLMIKCVGR was -1.05 ± 0.76; that for ANPTADP was 0.578 ± 0.29. As to CKLHRVYAIFFSMD, the amyloid nucleation score entry was “inactive”. Regarding LYSMSHCWHVQCWEFDSYVG, the amyloid nucleation score is -0.174 ± 0.23. The value for YRQRFVRKARSFYLWVMALP was -0.409 ± 0.45. The figure for LRYVVNPF is -0.979 ± 0.37; for VCFCQAFYGTRYHKCLVGLF it is “inactive”.

With CASVSQGPKQLLPPNVTGLY, the amyloid nucleation score is -0.176 ± 0.45. In the case of YIAYGDFSSFFTLNIS, the amyloid nucleation score is 7.476 ± 0.047. Substance SYDDGRFGVGCCFIEGYRI had an amyloid nucleation score of -1.41 ± 1. The figure for CRSWTHKSHIPVKLSNDTMS is -0.106 ± 0.63; for RLVYGLFAYKF it is 5.29 ± 0.037.

ILLNGRSFLRS gave an amyloid nucleation score of 0.174 ± 1.

Substance NDRNYLSGSGESELLPDCND returned an amyloid nucleation score of -0.434 ± 0.76. As for SPYRLSPTQTLSFCFIRHLP, the amyloid nucleation score entry is “inactive”. As for LRVWYDSSAVDMLNVLMSFP, the amyloid nucleation score stood at 5.737 ± 0.032. The value for IVGNGRMCLRELSRFCFVRC was 1.04 ± 0.28. The value for MVVGFRLPERLTYWRGGHMS was 5.324 ± 0.047; that for LCMKYGVCVYVLFGWCKYTV was -0.068 ± 0.79; that for LRFRGV was 0.339 ± 0.28. The value for IYSFSASNW was 0.048 ± 0.79; that for ETFNCNFVWL was 4.83 ± 0.1. On to FNYGCFVLDSDHVAGKGILI, for which the amyloid nucleation score entry was “inactive”. AQGILVLLSSD returned an amyloid nucleation score of 0.23 ± 0.47. The substance VGGFRGRVTSHSPMRMCIQR showed an amyloid nucleation score of -0.114 ± 1.

With AEYIWWMVPVMKELVNEV, the amyloid nucleation score stood at 0.362 ± 0.38. The value for LTLLHFRREDTHCSGTGTPC was 1 ± 0.2; that for SNKHCWWLDCKHLRIMPRCD was -0.363 ± 0.37. For the substance IYKSRRVRHVLDVVL, the amyloid nucleation score is -0.241 ± 0.56. The figure for PSLAKRGVSVCLAKANSRTI is -0.388 ± 1. AMRGI gave an amyloid nucleation score of 1.26 ± 0.23. The value for RWEMLPVKSHNNLRIRK was -0.293 ± 0.31; that for VSRGGKHGVQIT was “inactive”; that for AVQEEARLALSVEPWSSDSG was 1.22 ± 0.28.
